This test concerns the target mouse angiotensin converting enzyme 2 (ACE2) (mouse) (UniProt Q8R0I0). Briefly: cell-based or functional assay.

Where “and” joins values, the source holds several entries; their conditions need not be identical. Identical values can stand only once.

Chain of UniProt Q8R0I0 (Q8R0I0 18-805): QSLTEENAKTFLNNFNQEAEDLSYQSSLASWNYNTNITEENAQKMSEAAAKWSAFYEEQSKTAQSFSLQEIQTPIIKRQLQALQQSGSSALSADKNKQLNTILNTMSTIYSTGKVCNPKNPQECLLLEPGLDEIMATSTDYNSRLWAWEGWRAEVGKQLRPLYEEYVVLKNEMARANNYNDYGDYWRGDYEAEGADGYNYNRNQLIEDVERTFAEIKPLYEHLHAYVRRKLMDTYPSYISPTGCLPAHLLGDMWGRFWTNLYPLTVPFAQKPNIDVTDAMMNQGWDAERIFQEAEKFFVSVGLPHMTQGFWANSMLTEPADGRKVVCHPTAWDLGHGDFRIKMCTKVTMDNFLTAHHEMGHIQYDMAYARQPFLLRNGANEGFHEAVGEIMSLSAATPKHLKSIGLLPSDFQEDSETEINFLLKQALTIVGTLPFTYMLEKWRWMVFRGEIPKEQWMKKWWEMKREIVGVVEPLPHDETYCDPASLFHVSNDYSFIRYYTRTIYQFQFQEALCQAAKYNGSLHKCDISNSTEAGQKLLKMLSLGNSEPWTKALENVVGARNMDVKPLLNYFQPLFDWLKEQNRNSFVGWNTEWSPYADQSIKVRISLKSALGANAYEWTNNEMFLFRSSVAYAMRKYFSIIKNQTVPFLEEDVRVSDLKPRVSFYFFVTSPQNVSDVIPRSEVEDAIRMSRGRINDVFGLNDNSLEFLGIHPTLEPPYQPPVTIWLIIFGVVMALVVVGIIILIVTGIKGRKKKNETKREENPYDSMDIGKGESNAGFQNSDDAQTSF

For the substance “SARS-CoV2 Spike protein, WT (614D), with C-terminal HA tag (from UniProt P0DTC2 14-1273)”, the cell fusion assay, FACS red/green double positive events (x over the baseline without Spike) was 17 and 18.
